Assay [1] addresses dvl2_human DVL2 (UniProt O14641).
Assay [2] addresses dvl3_human DVL3 (UniProt Q92997).
The target in assay [3] is DVL1, O14640-2.
Sequence of DVL1, O14640-2 (O14640 other isoform, or with tags, fused parts or gaps): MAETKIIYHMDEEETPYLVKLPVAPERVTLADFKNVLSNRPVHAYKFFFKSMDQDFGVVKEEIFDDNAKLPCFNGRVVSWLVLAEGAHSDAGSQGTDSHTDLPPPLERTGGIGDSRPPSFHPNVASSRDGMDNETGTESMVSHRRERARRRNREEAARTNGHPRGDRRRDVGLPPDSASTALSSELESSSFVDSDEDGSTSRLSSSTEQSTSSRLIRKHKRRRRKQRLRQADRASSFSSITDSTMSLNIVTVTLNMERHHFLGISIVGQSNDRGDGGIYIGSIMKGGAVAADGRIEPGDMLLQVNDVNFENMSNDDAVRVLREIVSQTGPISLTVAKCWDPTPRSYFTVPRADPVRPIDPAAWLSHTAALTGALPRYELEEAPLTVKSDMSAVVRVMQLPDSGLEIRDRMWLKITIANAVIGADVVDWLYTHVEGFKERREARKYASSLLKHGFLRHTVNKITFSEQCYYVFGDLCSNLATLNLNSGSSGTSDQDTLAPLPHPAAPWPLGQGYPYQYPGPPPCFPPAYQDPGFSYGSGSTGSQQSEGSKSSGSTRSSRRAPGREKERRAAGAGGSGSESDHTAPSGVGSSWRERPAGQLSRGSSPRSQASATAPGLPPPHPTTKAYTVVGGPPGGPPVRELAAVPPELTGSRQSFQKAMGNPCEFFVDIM

Sequence of UniProt O14641 (O14641 whole entry): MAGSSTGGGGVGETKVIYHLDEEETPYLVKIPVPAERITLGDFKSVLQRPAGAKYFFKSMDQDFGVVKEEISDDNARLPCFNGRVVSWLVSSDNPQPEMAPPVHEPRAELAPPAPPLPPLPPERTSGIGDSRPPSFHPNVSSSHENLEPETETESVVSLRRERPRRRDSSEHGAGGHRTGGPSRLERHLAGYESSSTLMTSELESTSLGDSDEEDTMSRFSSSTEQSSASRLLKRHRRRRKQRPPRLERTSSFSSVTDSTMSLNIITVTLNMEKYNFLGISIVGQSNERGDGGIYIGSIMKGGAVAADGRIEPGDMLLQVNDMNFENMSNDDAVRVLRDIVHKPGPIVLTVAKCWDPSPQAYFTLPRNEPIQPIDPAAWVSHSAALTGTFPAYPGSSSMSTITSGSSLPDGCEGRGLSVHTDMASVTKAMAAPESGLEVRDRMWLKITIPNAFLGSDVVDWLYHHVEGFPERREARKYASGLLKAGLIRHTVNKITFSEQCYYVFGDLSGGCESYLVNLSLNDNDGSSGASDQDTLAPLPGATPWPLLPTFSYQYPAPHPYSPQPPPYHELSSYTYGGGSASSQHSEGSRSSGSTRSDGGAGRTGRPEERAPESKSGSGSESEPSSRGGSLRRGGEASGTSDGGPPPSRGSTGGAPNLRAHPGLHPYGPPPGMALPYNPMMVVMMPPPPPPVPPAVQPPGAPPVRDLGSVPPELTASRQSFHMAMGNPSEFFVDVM
Sequence of UniProt Q92997 (Q92997 whole entry): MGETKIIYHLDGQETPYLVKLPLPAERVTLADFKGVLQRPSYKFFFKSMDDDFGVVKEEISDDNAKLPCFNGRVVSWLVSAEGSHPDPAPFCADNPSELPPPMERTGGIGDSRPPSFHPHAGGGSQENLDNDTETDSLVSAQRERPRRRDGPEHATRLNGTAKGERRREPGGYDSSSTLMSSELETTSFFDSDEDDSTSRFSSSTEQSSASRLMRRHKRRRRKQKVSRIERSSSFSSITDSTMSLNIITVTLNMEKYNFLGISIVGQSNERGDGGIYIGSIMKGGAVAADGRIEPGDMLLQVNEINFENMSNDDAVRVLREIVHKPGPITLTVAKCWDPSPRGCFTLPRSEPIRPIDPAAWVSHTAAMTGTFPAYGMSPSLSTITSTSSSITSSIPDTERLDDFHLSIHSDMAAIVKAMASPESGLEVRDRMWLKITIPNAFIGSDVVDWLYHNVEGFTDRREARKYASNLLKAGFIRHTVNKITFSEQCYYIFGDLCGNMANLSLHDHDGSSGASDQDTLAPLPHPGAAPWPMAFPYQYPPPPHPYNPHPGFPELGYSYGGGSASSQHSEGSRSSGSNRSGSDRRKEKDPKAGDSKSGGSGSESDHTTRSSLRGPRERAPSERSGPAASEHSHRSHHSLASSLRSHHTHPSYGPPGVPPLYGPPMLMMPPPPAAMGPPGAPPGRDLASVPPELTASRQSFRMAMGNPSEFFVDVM

For “Leucine-rich repeat serine/threonine-protein kinase 2 (Homo sapiens), Q5S007 Y1699C”, the “effect of a mutation on the interaction” value in assay [1], in assay [2] and in assay [3] was “decreasing interaction” in each case. For “Leucine-rich repeat serine/threonine-protein kinase 2 (Homo sapiens), Q5S007 R1728H”, the “effect of a mutation on the interaction” value in assay [3] is “increasing interaction”. On to “Leucine-rich repeat serine/threonine-protein kinase 2 (Homo sapiens), Q5S007 R1441G”, for which the “effect of a mutation on the interaction” value in assay [3] is listed as “increasing interaction”.

On to “Leucine-rich repeat serine/threonine-protein kinase 2 (Homo sapiens), Q5S007 R1728L”, for which, in assay [3], the “effect of a mutation on the interaction” value is recorded as “increasing interaction”. Still for that read-out and setting: in the case of “Leucine-rich repeat serine/threonine-protein kinase 2 (Homo sapiens), Q5S007 R1441H” it was “increasing interaction”; in that of “Leucine-rich repeat serine/threonine-protein kinase 2 (Homo sapiens), Q5S007 R1441C”, “increasing interaction”. For the substance “Leucine-rich repeat serine/threonine-protein kinase 2 (Homo sapiens), Q5S007 R1514Q”, in assay [1], the “effect of a mutation on the interaction” value was “decreasing interaction”.

The values above are taken from IntAct's records for PubMed 19625296.
